Experimental data from patent US20150344570A1 (published 2015).
Each block holds one binder with its values, some of them ahead of it.

Assays:
[1] = molecular target: T1, FcγRIa extracellular domain with C-terminal His tag (human, UniProt P12314 16-292); assay: SPR; He/Con_1a divided by He/Con_2b (FcγRIa against FcγRIIb)
T1 construct: extracellular domain; also called FcgRI; CD64; not shown: His tag at the C terminus

[2] = molecular target: T1, FcγRIa extracellular domain with …; assay: SPR (Biacore), antibody captured, FcγR analyte; relative to GpH7-A5/GpH7-B3/GpL16-k0 = 100
[3] = molecular target: T2, FcγRIIb extracellular domain with C-terminal His tag (human, UniProt P31994 43-217); assay: as above
T2 construct: extracellular domain; also called FcgRIIb; CD32B; not shown: His tag at the C terminus
T2 sequence (looked up): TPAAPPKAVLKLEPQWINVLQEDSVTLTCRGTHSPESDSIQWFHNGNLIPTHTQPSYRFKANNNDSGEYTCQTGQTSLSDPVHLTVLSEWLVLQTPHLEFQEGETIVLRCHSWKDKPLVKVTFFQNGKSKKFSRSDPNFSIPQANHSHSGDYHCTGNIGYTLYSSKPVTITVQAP

FcγRIIIa [4] = molecular target: T3, FcγRIIIa (human, UniProt P08637 17-208); assay: SPR; He/Con_3a (FcγRIIIa) divided by He/Con_2b (FcγRIIb)
T3 construct: extracellular domain; Soluble extracellular domain with a C-terminal His tag; also called FcgRIIIa; 3a; not shown: His tag attached to the C terminus

FcγRIIb = molecular target: T4, FcγRIIb (human, UniProt P31994 43-217); assay: SPR (Biacore), antibody captured on chip, FcγR as analyte
T4 construct: extracellular domain; Soluble extracellular domain with a C-terminal His tag, expressed in FreeStyle293 cells; also called FcgRIIb; 2b; not shown: His tag attached to the C terminus
T4 sequence (looked up): T2 sequence (looked up)

FcγRIIIa [5] = molecular target: T3, FcγRIIIa; assay: as above

T3 sequence (P08637 17-208): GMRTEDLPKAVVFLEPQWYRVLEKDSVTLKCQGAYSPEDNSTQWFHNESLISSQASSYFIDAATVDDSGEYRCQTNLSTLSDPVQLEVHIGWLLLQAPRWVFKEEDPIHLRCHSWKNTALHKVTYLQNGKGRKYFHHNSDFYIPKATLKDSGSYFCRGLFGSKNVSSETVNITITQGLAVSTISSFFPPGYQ
T1 sequence (P12314 16-292): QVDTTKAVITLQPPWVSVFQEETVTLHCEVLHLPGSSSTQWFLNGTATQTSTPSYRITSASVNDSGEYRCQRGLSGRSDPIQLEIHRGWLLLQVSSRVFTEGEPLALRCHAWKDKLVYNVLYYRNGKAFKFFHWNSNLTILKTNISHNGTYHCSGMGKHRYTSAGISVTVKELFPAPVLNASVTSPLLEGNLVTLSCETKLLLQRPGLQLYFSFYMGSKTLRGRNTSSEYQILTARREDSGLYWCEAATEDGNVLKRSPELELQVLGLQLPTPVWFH

B1: GpH7-A5/GpH7-B3 variant G236_06M/GpL16-k0 (antibody, human IgG1, kappa)
heavy 1: not shown
heavy 2: not shown
light: DIVMTQSPLSLPVTPGEPASISCQASESLVHSNRNTYLHWYLQKPGQSPQLLIYKVSNRFSGVPDRFSGSGSGTDFTLKISRVEAEDVGVYYCSQNTHVPPTFGQGTKVEIERTVAAPSVFIFPPSDEQLKSGTASVVCLLNNFYPREAKVQWKVDNALQSGNSQESVTEQDSKDSTYSLSSTLTLSKADYEKHKVYACEVTHQGLSSPVTKSFNRGEC
notes: Heterodimerized anti-glypican-3 IgG1; mutation only in the GpH7-B3 H chain; also called He Ab
He_1a/2b (Ia/IIb) [1]: 2.13 ratio
He/Con_1a [2]: 96.7 % of HeCon Ab
He/Con_2b [3]: 45.5 % of HeCon Ab

B3: GpH7-A5/GpH7-B3 variant P238_02A/GpL16-k0 (antibody, human IgG1, kappa)
heavy 1: not shown
heavy 2: not shown
light: B1 light
notes: as for B1
He_1a/2b (Ia/IIb) [1]: 1.66 ratio
He/Con_1a [2]: 95.2 % of HeCon Ab
He/Con_2b [3]: 57.4 % of HeCon Ab

B4: GpH7-A5/GpH7-B3 variant G237_05P/GpL16-k0 (antibody, human IgG1, kappa)
heavy 1: not shown
heavy 2: not shown
light: B1 light
notes: as for B1
He_1a/2b (Ia/IIb) [1]: 1.81 ratio
He/Con_1a [2]: 44.5 % of HeCon Ab
He/Con_2b [3]: 24.6 % of HeCon Ab

B6: GpH7-A5/GpH7-B3 variant S239_11K/GpL16-k0 (antibody, human IgG1, kappa)
heavy 1: not shown
heavy 2: not shown
light: B1 light
notes: as for B1
He_1a/2b (Ia/IIb) [1]: 2.75 ratio
He/Con_1a [2]: 68 % of HeCon Ab
He/Con_2b [3]: 24.7 % of HeCon Ab

B7: GpH7-A5/GpH7-B3 variant G237_03V/GpL16-k0 (antibody, human IgG1, kappa)
heavy 1: not shown
heavy 2: not shown
light: B1 light
notes: as for B1
He_1a/2b (Ia/IIb) [1]: 1.28 ratio
He/Con_1a [2]: 78.5 % of HeCon Ab
He/Con_2b [3]: 61.4 % of HeCon Ab

B10: GpH7-A5/GpH7-B3 variant G236_08L/GpL16-k0 (antibody, human IgG1, kappa)
heavy 1: not shown
heavy 2: not shown
light: B1 light
notes: as for B1
He_1a/2b (Ia/IIb) [1]: 2.97 ratio
He/Con_1a [2]: 79.6 % of HeCon Ab
He/Con_2b [3]: 26.8 % of HeCon Ab

B15: GpH7-A5/GpH7-B3 variant P238_14T/GpL16-k0 (antibody, human IgG1, kappa)
heavy 1: not shown
heavy 2: not shown
light: B1 light
notes: as for B1
He_1a/2b (Ia/IIb) [1]: 1.8 ratio
He/Con_1a [2]: 91.1 % of HeCon Ab
He/Con_2b [3]: 50.7 % of HeCon Ab

B17: GpH7-A5/GpH7-B3 variant S239_16H/GpL16-k0 (antibody, human IgG1, kappa)
heavy 1: not shown
heavy 2: not shown
light: B1 light
notes: Heterodimerized anti-glypican-3 IgG1; the mutation is in the GpH7-B3 chain only; also called He Ab
He_3a/2b (IIIa/IIb) (FcγRIIIa [4]): 0.59 ratio
He/Con_2b (FcγRIIb): 49.4 relative binding, GpH7-A5/GpH7-B3/GpL16-k0 = 100
He/Con_3a (FcγRIIIa [5]): 29.2 relative binding, GpH7-A5/GpH7-B3/GpL16-k0 = 100

B22: GpH7-A5/GpH7-B3 variant G236_16H/GpL16-k0 (antibody, human IgG1, kappa)
heavy 1: not shown
heavy 2: not shown
light: B1 light
notes: as for B1
He_1a/2b (Ia/IIb) [1]: 2.99 ratio
He/Con_1a [2]: 83.5 % of HeCon Ab
He/Con_2b [3]: 27.9 % of HeCon Ab

B23: GpH7-A5/GpH7-B3 variant G236_07I/GpL16-k0 (antibody, human IgG1, kappa)
heavy 1: not shown
heavy 2: not shown
light: B1 light
notes: as for B1
He_1a/2b (Ia/IIb) [1]: 2.82 ratio
He/Con_1a [2]: 87.5 % of HeCon Ab
He/Con_2b [3]: 31 % of HeCon Ab

B28: GpH7-A5/GpH7-B3 variant G236_14T/GpL16-k0 (antibody, human IgG1, kappa)
heavy 1: not shown
heavy 2: not shown
light: B1 light
notes: as for B1
He_1a/2b (Ia/IIb) [1]: 1.59 ratio
He/Con_1a [2]: 92.2 % of HeCon Ab
He/Con_2b [3]: 57.8 % of HeCon Ab

B30: GpH7-A5/GpH7-B3 variant S239_19Q/GpL16-k0 (antibody, human IgG1, kappa)
heavy 1: not shown
heavy 2: not shown
light: B1 light
notes: as for B17
He_3a/2b (IIIa/IIb) (FcγRIIIa [4]): 0.66 ratio
He/Con_2b (FcγRIIb): 86.1 relative binding, GpH7-A5/GpH7-B3/GpL16-k0 = 100
He/Con_3a (FcγRIIIa [5]): 56.9 relative binding, GpH7-A5/GpH7-B3/GpL16-k0 = 100

The next lines start with the values.

He_1a/2b (Ia/IIb) [1]: 1.5 ratio
He/Con_1a [2]: 82.3 % of HeCon Ab
He/Con_2b [3]: 54.8 % of HeCon Ab
B2: GpH7-A5/GpH7-B3 variant G237_14T/GpL16-k0 (antibody, human IgG1, kappa)
heavy 1: not shown
heavy 2: not shown
light: B1 light
notes: as for B1

He_1a/2b (Ia/IIb) [1]: 1.37 ratio
He/Con_1a [2]: 96.6 % of HeCon Ab
He/Con_2b [3]: 70.4 % of HeCon Ab
B5: GpH7-A5/GpH7-B3 variant P238_13S/GpL16-k0 (antibody, human IgG1, kappa)
heavy 1: not shown
heavy 2: not shown
light: B1 light
notes: as for B1

He_1a/2b (Ia/IIb) [1]: 1.78 ratio
He/Con_1a [2]: 88.1 % of HeCon Ab
He/Con_2b [3]: 49.4 % of HeCon Ab
B8: GpH7-A5/GpH7-B3 variant S239_16H/GpL16-k0 (antibody, human IgG1, kappa)
heavy 1: not shown
heavy 2: not shown
light: B1 light
notes: as for B1

He_1a/2b (Ia/IIb) [1]: 9.3 ratio
He/Con_1a [2]: 63.1 % of HeCon Ab
He/Con_2b [3]: 6.8 % of HeCon Ab
B9: GpH7-A5/GpH7-B3 variant G236_12R/GpL16-k0 (antibody, human IgG1, kappa)
heavy 1: not shown
heavy 2: not shown
light: B1 light
notes: as for B1

He_1a/2b (Ia/IIb) [1]: 1.32 ratio
He/Con_1a [2]: 72.6 % of HeCon Ab
He/Con_2b [3]: 55.2 % of HeCon Ab
B11: GpH7-A5/GpH7-B3 variant G237_16H/GpL16-k0 (antibody, human IgG1, kappa)
heavy 1: not shown
heavy 2: not shown
light: B1 light
notes: as for B1

He_1a/2b (Ia/IIb) [1]: 4.27 ratio
He/Con_1a [2]: 77.4 % of HeCon Ab
He/Con_2b [3]: 18.1 % of HeCon Ab
B12: GpH7-A5/GpH7-B3 variant P238_11K/GpL16-k0 (antibody, human IgG1, kappa)
heavy 1: not shown
heavy 2: not shown
light: B1 light
notes: as for B1

He_1a/2b (Ia/IIb) [1]: 1.5 ratio
He/Con_1a [2]: 77.3 % of HeCon Ab
He/Con_2b [3]: 51.4 % of HeCon Ab
B13: GpH7-A5/GpH7-B3 variant P238_12R/GpL16-k0 (antibody, human IgG1, kappa)
heavy 1: not shown
heavy 2: not shown
light: B1 light
notes: as for B1

He_1a/2b (Ia/IIb) [1]: 1.42 ratio
He/Con_1a [2]: 71 % of HeCon Ab
He/Con_2b [3]: 49.8 % of HeCon Ab
B14: GpH7-A5/GpH7-B3 variant G236_11K/GpL16-k0 (antibody, human IgG1, kappa)
heavy 1: not shown
heavy 2: not shown
light: B1 light
notes: as for B1

He_1a/2b (Ia/IIb) [1]: 2.13 ratio
He/Con_1a [2]: 93.8 % of HeCon Ab
He/Con_2b [3]: 44.1 % of HeCon Ab
B16: GpH7-A5/GpH7-B3 variant S239_04F/GpL16-k0 (antibody, human IgG1, kappa)
heavy 1: not shown
heavy 2: not shown
light: B1 light
notes: as for B1

He_1a/2b (Ia/IIb) [1]: 2.34 ratio
He/Con_1a [2]: 92.5 % of HeCon Ab
He/Con_2b [3]: 39.5 % of HeCon Ab
B18: GpH7-A5/GpH7-B3 variant G236_15Y/GpL16-k0 (antibody, human IgG1, kappa)
heavy 1: not shown
heavy 2: not shown
light: B1 light
notes: as for B1

He_1a/2b (Ia/IIb) [1]: 1.66 ratio
He/Con_1a [2]: 92.9 % of HeCon Ab
He/Con_2b [3]: 56 % of HeCon Ab
B19: GpH7-A5/GpH7-B3 variant P238_01G/GpL16-k0 (antibody, human IgG1, kappa)
heavy 1: not shown
heavy 2: not shown
light: B1 light
notes: as for B1

He_1a/2b (Ia/IIb) [1]: 1.98 ratio
He/Con_1a [2]: 92.1 % of HeCon Ab
He/Con_2b [3]: 46.6 % of HeCon Ab
B20: GpH7-A5/GpH7-B3 variant G236_19Q/GpL16-k0 (antibody, human IgG1, kappa)
heavy 1: not shown
heavy 2: not shown
light: B1 light
notes: as for B1

He_1a/2b (Ia/IIb) [1]: 1.81 ratio
He/Con_1a [2]: 105 % of HeCon Ab
He/Con_2b [3]: 58.2 % of HeCon Ab
B21: GpH7-A5/GpH7-B3 variant G236_20W/GpL16-k0 (antibody, human IgG1, kappa)
heavy 1: not shown
heavy 2: not shown
light: B1 light
notes: Heterodimerized anti-glypican-3 IgG1; mutation only in the GpH7-B3 H chain; also called He Ab; GpH7-A5/GpH7-B3-03-20W/GpL16-k0

He_1a/2b (Ia/IIb) [1]: 2.57 ratio
He/Con_1a [2]: 89.8 % of HeCon Ab
He/Con_2b [3]: 34.9 % of HeCon Ab
B24: GpH7-A5/GpH7-B3 variant S239_15Y/GpL16-k0 (antibody, human IgG1, kappa)
heavy 1: not shown
heavy 2: not shown
light: B1 light
notes: as for B1

He_1a/2b (Ia/IIb) [1]: 2.21 ratio
He/Con_1a [2]: 86.5 % of HeCon Ab
He/Con_2b [3]: 39.1 % of HeCon Ab
B25: GpH7-A5/GpH7-B3 variant S239_12R/GpL16-k0 (antibody, human IgG1, kappa)
heavy 1: not shown
heavy 2: not shown
light: B1 light
notes: as for B1

He_1a/2b (Ia/IIb) [1]: 1.24 ratio
He/Con_1a [2]: 99.1 % of HeCon Ab
He/Con_2b [3]: 80 % of HeCon Ab
B26: GpH7-A5/GpH7-B3 variant P238_07I/GpL16-k0 (antibody, human IgG1, kappa)
heavy 1: not shown
heavy 2: not shown
light: B1 light
notes: as for B1

He_1a/2b (Ia/IIb) [1]: 1.27 ratio
He/Con_1a [2]: 93.3 % of HeCon Ab
He/Con_2b [3]: 73.2 % of HeCon Ab
B27: GpH7-A5/GpH7-B3 variant P238_18N/GpL16-k0 (antibody, human IgG1, kappa)
heavy 1: not shown
heavy 2: not shown
light: B1 light
notes: as for B1

He_3a/2b (IIIa/IIb) (FcγRIIIa [4]): 0.73 ratio
He/Con_2b (FcγRIIb): 34.9 relative binding, GpH7-A5/GpH7-B3/GpL16-k0 = 100
He/Con_3a (FcγRIIIa [5]): 25.6 relative binding, GpH7-A5/GpH7-B3/GpL16-k0 = 100
B29: GpH7-A5/GpH7-B3 variant S239_15Y/GpL16-k0 (antibody, human IgG1, kappa)
heavy 1: not shown
heavy 2: not shown
light: B1 light
notes: as for B17
